We go through one molecule from patent US20050227296A1, “Method for indentifying integrin antagonists” (The General Hospital Corporation, a Massachusetts …, priority 1988, published 2005).

For the assay, the target named is T1, EAiC3b (erythrocytes coated with iC3b) (Homo sapiens, UniProt P01024).
T1 construct: EAiC3b (erythrocytes coated with iC3b) were generated by treating EAC3b with purified human factors H and I; tissue Sigma Chemical Co. (C5-deficient human serum); host or cells: human serum C3 deposited on IgM-coated erythrocytes
Nature of the assay: Erythrocyte binding assay, EAiC3b on immobilized proteins or peptides. The note with it: 37° C., divalent cations. The method, then: Erythrocytes (E) coated with rabbit anti-E IgM (EA) or C3b (EAC3b) were prepared as described by Dana et al. (J. Immunol. 73:153, 1984). EAiC3b (erythrocytes coated with iC3b) were generated by treating EAC3b with purified human factors H and I, or alternatively prepared from EA using C5-deficient human serum (Sigma Chemical Co., St. Louis, Mo.). EAiC3b cells were washed and stored in isotonic veronal-buffered saline (VBS^2+), pH 7.4, containing 0.15 mM calcium-1 mM magnesium (MgCl2+CaCl2) and 1 mg/ml Soybean Trypsin Inhibitor (STI; Worthington Biochemical Co., Freehold, N.J.) at 1.5×10^8 cells/ml. […]
Immobilization of recombinant proteins and peptides: Purified recombinant A-domain was added to Immulon-2 96-well microtiter plates (Dynatech) overnight. […] Binding of the anti-CD11b mabs to the coated rA-domain was measured by ELISA and read using a plate reader (Molecular Dynamics).
Erythrocyte binding assays: Fluoresceinated EAiC3b, EAC3b or EA were resuspended to 1.5×10^8/ml in buffer A, and added […] to wells containing immobilized proteins or peptides in a total volume of 100 ml. […] Fluorescence was quantified (excitatory wavelength, 490 nm, emission wavelength, 510 nm) using a SLM 8000 fluorometer (SLM Instruments, Urbana, Ill.). […] The effect of temperature was evaluated in the presence of 1 mM MnCl2 at 37° C. and at 4° C.

T1 sequence (P01024 749-1303 limits assumed): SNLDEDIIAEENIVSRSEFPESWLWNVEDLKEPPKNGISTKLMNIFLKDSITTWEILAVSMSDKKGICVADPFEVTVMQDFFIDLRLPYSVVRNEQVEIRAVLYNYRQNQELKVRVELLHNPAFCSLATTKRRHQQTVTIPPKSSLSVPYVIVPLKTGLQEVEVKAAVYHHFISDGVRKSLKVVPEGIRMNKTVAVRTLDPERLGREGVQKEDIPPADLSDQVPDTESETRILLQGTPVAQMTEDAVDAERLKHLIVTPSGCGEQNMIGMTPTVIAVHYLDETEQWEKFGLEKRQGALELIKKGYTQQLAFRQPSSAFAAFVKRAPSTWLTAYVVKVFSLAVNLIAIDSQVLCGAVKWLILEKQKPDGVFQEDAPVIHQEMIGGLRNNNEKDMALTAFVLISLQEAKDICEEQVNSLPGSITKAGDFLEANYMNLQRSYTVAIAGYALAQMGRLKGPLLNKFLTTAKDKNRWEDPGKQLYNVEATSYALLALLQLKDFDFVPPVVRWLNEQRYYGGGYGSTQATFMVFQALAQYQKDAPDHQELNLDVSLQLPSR
T1 sequence (P01024 23-667 partner limits assumed): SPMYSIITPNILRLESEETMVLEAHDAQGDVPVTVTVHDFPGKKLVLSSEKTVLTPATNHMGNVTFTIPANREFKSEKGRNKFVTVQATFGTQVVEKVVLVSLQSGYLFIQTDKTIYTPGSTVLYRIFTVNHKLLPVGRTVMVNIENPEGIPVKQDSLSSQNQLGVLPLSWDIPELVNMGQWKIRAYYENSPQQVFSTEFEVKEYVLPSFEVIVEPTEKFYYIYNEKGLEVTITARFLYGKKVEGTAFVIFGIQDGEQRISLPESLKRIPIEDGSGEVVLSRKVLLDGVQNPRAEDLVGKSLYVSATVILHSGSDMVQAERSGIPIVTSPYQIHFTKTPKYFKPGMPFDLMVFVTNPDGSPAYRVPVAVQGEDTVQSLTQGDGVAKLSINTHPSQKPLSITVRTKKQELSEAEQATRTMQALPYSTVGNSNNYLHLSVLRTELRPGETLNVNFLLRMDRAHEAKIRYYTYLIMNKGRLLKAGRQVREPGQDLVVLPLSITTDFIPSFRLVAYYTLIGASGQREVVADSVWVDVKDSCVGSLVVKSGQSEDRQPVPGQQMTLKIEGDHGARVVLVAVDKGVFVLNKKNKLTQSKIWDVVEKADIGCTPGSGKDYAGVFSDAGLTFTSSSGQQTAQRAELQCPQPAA
T1 sequence (P01024 1321-1663 partner limits assumed): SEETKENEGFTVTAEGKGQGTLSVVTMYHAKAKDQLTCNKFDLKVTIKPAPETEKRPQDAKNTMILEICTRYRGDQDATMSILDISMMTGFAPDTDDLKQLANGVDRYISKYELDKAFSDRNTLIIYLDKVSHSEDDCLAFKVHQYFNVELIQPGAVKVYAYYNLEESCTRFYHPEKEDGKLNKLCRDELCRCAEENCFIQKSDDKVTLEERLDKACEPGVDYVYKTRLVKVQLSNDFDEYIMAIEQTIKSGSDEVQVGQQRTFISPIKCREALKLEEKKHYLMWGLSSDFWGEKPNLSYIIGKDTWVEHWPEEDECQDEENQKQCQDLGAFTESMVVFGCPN

B1: r11aA: recombinant CD11a A domain expressed as GST fusion protein (protein)
chain: GNVDLVFLFDGSMSLQPDEFQKILDFMKDVMKKLSNTSYQFAAVQFSTSYKTEFDFSDYVKRKDPDALLKHVKHMLLLTNTFGAINYVATEVFREELGARPDATKVLIIITDGEATDSGNIDAAKDIIRYIIGIGKHFQTKESQETLHKFASKPASEFVKILDTFEKLKDLFTELQKKIY
For the molecule B1, the “direct binding of EAiC3b to immobilized protein or peptide” value (listed as rA-domain derived from CD11a/CD18) is given as “did not bind” and the “direct binding of EAiC3b to immobilized protein or peptide” value (listed as rCD11a A-domain) is on record as “lack of binding”.
